Measured values from article doi:10.1101/2024.05.08.592267, “Origins and diversity of pan-isotype human bone marrow plasma cells” (bioRxiv, 2024).

Biological target: T1, biotinylated natural Ara h 2 (Arachis hypogaea (peanut), natural …, UniProt Q6PSU2, biotin (position not given))
T1 construct: Ara h 2, peanut allergen, 'natural' (not recombinant) protein; Natural Ara h 2 from peanut may be a mixture of isoforms; also called Biotin Natural Ara h 2; source: bought: InBio (biotinylated natural Ara h 2)
Assay: BLI; in-tandem epitope binning; biotinylated natural Ara h 2 loaded on streptavidin sensors; primary mAbs 10 ug/mL, secondary mAbs 5 ug/mL in kinetics buffer (Dulbecco's PBS, 1% BSA, 0.02% Tween-20); Octet R2
Conditions: both partners purified

T1 sequence (Q6PSU2 whole entry, looked up, canonical isoform): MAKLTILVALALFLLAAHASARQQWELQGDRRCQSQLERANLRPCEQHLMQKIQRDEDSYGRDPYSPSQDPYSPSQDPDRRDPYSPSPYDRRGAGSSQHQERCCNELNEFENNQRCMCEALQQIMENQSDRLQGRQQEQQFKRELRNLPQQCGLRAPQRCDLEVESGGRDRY

B1: 13T5 (monoclonal Ara h 2 specific antibody, Epitope 2) (antibody, V domains shown)
VH: QVQLQESGPGLVKPSETLSLTCTVSGGSMSSYYWGWIRQPAGRGLEWIGRIFTTGSTIYNASLNSRVSMSVDTSKNQFSLKLTSVTAADTALYFCVRDRRGRSHDSNWYWYFDLWGRGTLVTVSS
VL: DIVMTQSPSSLSASVGDRVIITCRTSQTLSRNLNWYQQKPGEAPKLLIYGASTLQSGVPSRFTGSGSGTDFTLIISSLQPEDFATYYCQQSDNTPRTFGQGTKVEIK
- binding result: binds
